Test results: patent US20050025760A1 (KEIO UNIVERSITY, published 2005)

Legend:
[1] = molecular target: T1, recombinant protein human Dsg3-His (human, UniProt P32926 50-615); test: ELISA on recombinant human Dsg3-His
T1 construct: extracellular domain; Baculovirus product; also called recombinant human Dsg3; not shown: C-terminal His tag
T1 sequence (looked up): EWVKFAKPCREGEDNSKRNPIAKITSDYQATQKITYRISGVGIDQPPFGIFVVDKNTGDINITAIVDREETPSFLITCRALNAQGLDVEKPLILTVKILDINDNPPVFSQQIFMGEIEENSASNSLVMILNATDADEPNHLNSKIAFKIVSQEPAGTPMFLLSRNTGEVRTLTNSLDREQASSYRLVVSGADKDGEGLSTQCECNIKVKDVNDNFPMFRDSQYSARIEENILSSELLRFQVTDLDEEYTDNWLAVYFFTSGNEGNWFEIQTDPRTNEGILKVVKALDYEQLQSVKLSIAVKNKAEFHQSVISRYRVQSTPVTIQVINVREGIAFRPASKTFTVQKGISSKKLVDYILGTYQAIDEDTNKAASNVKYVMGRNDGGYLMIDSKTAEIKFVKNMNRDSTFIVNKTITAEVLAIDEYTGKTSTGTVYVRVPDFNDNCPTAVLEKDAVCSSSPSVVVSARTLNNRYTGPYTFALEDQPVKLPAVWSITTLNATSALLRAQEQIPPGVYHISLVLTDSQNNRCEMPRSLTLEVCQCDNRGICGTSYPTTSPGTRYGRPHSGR
From the text: The baculovirus vectors, pEVmod-Dsg3-His and pEVmod-Dsg1-His, pEVmod-mouse Dsg3-His and pEVmod-mouse Dsg1 -His, that were constructed according to the method as described previously (J. Immunol. 159, 2010-2017, 1997) were used. These recombinant baculoviruses were infected to insect cells, High Five (Invitrogen Corporation), then the recombinant protein human Dsg3-His and Dsg1-His, recombinant protein mouse Dsg3-His and Dsg1-His were collected from the culture media, respectively. In addition, purification of these recombinant proteins was conducted using Ni-NTA column. These purified recombinant proteins were coated on ELISA (Enzyme Linked Immunosorbent Assay) plates, respectively, 50 μl each of the culture supernatant of the anti-Dsg3 monoclonal antibody-producing hybridoma was added to each well, and ELISA was practiced according to the method as previously described (J Clin Invest 105, 625-631, 2000). PV mouse model 1 serum with moderate degree of antibody titer was selected as a positive control, and 1 serum of normal mouse serum was selected as a negative control. Absorbance was determined at wavelength 450 nm (Bio-rad, Hercules, Calif. USA), and the index was shown by the following formula. Index={OD(specimen)−OD(negative control)}/{OD(positive control)−OD(negative control)}×100 A-2 (Living Cell Staining using Culture Mouse Keratinocyte PAM 212)

[2] = molecular target: T2, inactivated Dsg3 protein having a pro-sequence (mouse, UniProt O35902 24-617, limits assumed); test: immunoprecipitation and immunoblotting of recombinant Dsg3 (FIG. 7b)
T2 construct: the sentence on immunoblotting itself says only 'Dsg3'; also called protein with large molecular weight; not shown: His tag
T2 sequence (looked up): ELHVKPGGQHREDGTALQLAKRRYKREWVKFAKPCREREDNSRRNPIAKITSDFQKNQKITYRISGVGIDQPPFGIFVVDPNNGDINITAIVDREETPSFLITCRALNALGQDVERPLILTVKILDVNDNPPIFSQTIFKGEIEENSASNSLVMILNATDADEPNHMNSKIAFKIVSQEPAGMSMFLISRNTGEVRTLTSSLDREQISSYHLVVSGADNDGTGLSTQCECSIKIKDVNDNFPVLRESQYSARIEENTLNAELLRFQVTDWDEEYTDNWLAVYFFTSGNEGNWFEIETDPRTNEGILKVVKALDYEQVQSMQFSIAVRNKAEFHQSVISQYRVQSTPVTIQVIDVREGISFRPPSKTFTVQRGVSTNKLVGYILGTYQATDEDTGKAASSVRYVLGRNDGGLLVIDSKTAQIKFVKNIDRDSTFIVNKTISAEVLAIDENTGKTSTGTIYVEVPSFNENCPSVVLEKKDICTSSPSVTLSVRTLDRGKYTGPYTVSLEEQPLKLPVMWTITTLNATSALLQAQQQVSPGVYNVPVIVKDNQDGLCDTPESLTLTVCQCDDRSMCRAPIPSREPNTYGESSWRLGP
Procedure: Then 10 μl of protein G (Protein G sepharose 4 fast flow: Amersham Pharmacia Biotech, Buckinghamshire, England) was added and reacted overnight at […]. Centrifugation was conducted after the reaction, and 50 μl of SDS was added to the precipitate and boiled for 2 minutes. Each sample was subjected to electrophoresis with a 7.5% uniform gel plate for electrophoresis (multigel 7.5: Daiichi Pure Chemicals, Tokyo, Japan), transcribed to PVDF membrane, then blocked. Further, 100-fold diluted anti-6X histidine antibody (R&D systems, Inc. Minn., USA) was reacted for 1 hour at room temperature, washed (3 times) in TBS (Tris buffered saline), then 1000-fold diluted alkaline phosphatase-goat anti-mouse IgG (Zymed, San Francisco, Calif., USA) was reacted for 1 hour at room temperature, washed (3 times) in TBS, then developed.
To characterize the epitopes of monoclonal antibodes such as AK23 and the like, it was first determined whether the binding to Dsg3 of the antibodies is calcium-dependent or not. Recombinant mouse Dsg3-His was treated with or without EDTA, and then subjected to immunoprecipitation with the AK antibodies. EDTA treatment abolished the reactivity of AK19 and AK23 antibodies, but not the reactivity of the other AK antibodies (Table 3, FIG. 7a). […]

binding result [1]: binds
binding result [2]: no binding
B1: anti-Dsg3 monoclonal antibody AK23 (antibody, mouse IgG1, V domains shown)
VH: QVQLQQSGTELVKPGASVKLSCKSSGYTFTSYWINWVKQRPGQGLEWIGNINPSNGGINYNEKFKSKATLTVDKSSSTAYMQLKSLTSEDSAVYYCARGGYDGYPWGQGTTVTVS
VL: DIQMTQSPKFLLVSAGDRVTITCKASQSVSYDVAWYQQKPGQSPKLLISYASNRYTGVPDRFTGSGYGSDFTFTISTVQTEDLAVYFCQQDYSSPWTFGGGTKLELKR
notes: Mouse IgG1 kappa hybridoma antibody
